Measurements published in patent publication EP0931836B1, “Vasopermeability enhancing peptide of human interleukin-2 and immunoconjugates thereof” (priority 1998, dated 2004).
Blank lines part the entries; values can stand above or below the molecule they belong to.

Assays:
[1] = molecular target: nucleohistones expressed in the nucleus of mammalian cells; assay: paraformaldehyde-acetone-treated cell assay, 125I-labeled F(ab')2
[2] = system: Raji tumor-bearing nude mice; assay: In vivo vasopermeability / biodistribution study, Raji lymphoma model (Lym-1 immunoconjugates)
Description: The Raji lymphoma cell line was used to produce heterotransplants in 6-week-old female nude mice by the subcutaneous injection of a 0.2 ml inoculum consisting of 4 x 10^7 Raji cells and 4 x 10^6 human fetal fibroblast feeder cells in the left thigh. Three days prior to injection, the mice were irradiated with 400 rads using a cesium irradiator to ensure a high take rate of the implanted cells. The tumors were grown for 14-18 days until they grew to approximately 1 cm in diameter.
To test the relative effects of the immunoconjugates on the biodistribution and tumor uptake of Lym-1 or TNT-1 in tumor-bearing mice, separate groups of 4-5 mice were given intravenous injections of 30 µg of antibody alone or antibody conjugate. At 2.5 hr after injection, each group received 50 µCi of ^125I-labeled Lym-1 or TNT-1 F(ab')2 fragment as tracer.
All animals were sacrificed 72 hr later, by sodium pentobarbital overdose, for biodistribution analysis. Various organs, blood, and tumor were removed, weighed, and samples were counted in a gamma counter. For each mouse, data were expressed as tumor:organ ratio (cpm per gram tumor/cpm per gram organ) and percent injected dose/gram (%ID/g).
Each peptide and rhIL-2, as well as their respective immunoconjugates with MAb Lym-1, were assayed for their ability to induce tumor vascular permeability and enhanced antibody uptake in Raji tumor-bearing nude mice.

[3] = molecular target: variant of the HLA-Dr antigen expressed on the cell surface of human B-lymphocytes and malignant lymphomas (on Raji Burkitt's lymphoma cells) (human); assay: live cell radioimmunoassay on Raji cells, 125I-labeled F(ab')2

immunoreactivity [1]: > 80%
Molecule: 125I-labeled F(ab')2 fragment of murine monoclonal antibody TNT-1 (IgG2a)

Molecule: 3C: synthetic peptide fragment of IL-2, amino acid sequence 22-58 (SEQ ID NO: 1), permeability enhancing peptide (QMILNGINNYKNPKLTRMLTFKFYMPKKATELKHLQC) [Fragment 3C]
vasopermeability effects of Lym-1/IL-2 chemical conjugate ([2]; named peptide tested as vasoconjugate (joined to delivery vehicle, Lym-1), relative to IL-2 immunoconjugate): approximately 100%
Vasopermeability (%Lym-1/IL-2) ([2]; tumor vascular permeability and enhanced antibody uptake in Raji tumor-bearing nude mice, relative to Lym-1/IL-2, 30-40 pM of peptide per assay): 0 %Lym-1/IL-2

percent bound (immunoreactivity) [3]: 80%
B1: 125I-labeled F(ab')2 fragment of murine monoclonal antibody Lym-1 (IgG2a) (antibody, from another filing, V domains shown)
VH: QLKESGPGLVAPSQSLSITCTISGFSLTSYGVHWVRQPPGKGLEWLVVIWSDGSTTYNSALKSRLSISKDNSKSQVFLKMNSLQTDDTAIYYCASHYGSTLAFASWGHGTLVTVSA
VL: DIQMTQSPASLSASVGETVTIICRASVNIYSYLAWYQQKQGKSPQLLVYNAKILAEGVPSRFSGSGSGTQFSLKINSLQPEDFGSYYCQHHYGTFTFGSGTKLEIK
